Assay results taken from article PMC6599011, “Transcription factor YcjW controls the emergency H2S production in E. coli”.

Columns and labels:
Settings in all cases: protein: recombinant; tags: His-SUMO (pET28-SUMO), cleaved with SUMO protease; chain copies: 2; label: 32P 5' end (T4 PNK); blunt
[1] = target: T1, YcjW (Escherichia coli K-12 MG1655, UniProt P77615 1-332); assay: EMSA; shift from DNA:protein 1:0.5; no free probe at 1:2; EMSA with 32P-labelled dsDNA; binding buffer as in cited ref 14, not given; sugars preincubated with protein 20 min at room temperature; protein stored in 20 mM Tris-Cl pH 8.0, 50 mM NaCl, 1 mM DTT
T1 sequence: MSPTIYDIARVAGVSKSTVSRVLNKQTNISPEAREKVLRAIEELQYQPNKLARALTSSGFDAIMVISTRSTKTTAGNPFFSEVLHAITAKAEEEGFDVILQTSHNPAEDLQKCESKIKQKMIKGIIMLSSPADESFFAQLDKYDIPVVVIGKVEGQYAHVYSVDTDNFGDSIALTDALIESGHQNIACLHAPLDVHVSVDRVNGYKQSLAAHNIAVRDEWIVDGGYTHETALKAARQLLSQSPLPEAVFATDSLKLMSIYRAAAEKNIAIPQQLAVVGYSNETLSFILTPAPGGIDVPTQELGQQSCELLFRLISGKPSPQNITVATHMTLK

[2] = target: T2, YcjW S258N (Escherichia coli K-12 MG1655, UniProt P77615 1-332, S258N); assay: as above
T2 sequence: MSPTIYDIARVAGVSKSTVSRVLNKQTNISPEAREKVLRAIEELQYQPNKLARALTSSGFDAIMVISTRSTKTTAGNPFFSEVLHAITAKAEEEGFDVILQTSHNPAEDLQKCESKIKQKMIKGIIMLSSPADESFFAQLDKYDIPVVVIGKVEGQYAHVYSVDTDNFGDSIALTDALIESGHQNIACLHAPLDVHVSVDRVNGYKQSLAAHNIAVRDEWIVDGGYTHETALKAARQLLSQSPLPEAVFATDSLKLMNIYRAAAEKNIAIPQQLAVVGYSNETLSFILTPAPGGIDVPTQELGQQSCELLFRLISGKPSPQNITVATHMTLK

[3] = target: T1, YcjW; assay: EMSA; shift from about 1:0.5 DNA:protein, increasing with protein; EMSA with 32P-labelled dsDNA; binding buffer as in cited ref 14, not given; sugars preincubated with protein 20 min at room temperature; protein stored in 20 mM Tris-Cl pH 8.0, 50 mM NaCl, 1 mM DTT

B1: narP EMSA probe (LL62/LL63) (dsDNA)
DNA 1: GGTAACATTCACGCGCCTGGTAGCGTTACCAACGCTACGCTCAAACATAATGATTC
DNA 2: GAATCATTATGTTTGAGCGTAGCGTTGGTAACGCTACCAGGCGCGTGAATGTTACC
- binding result [1]: binds
- binding result [2]: binds

B2: ycjM EMSA probe (LL58/LL59) (dsDNA)
DNA 1: GAGTAGTCTCTCGTTTCATGGGACCGCTACCACGGAAAGGCAACATGAAAC
DNA 2: GTTTCATGTTGCCTTTCCGTGGTAGCGGTCCCATGAAACGAGAGACTACTC
- binding result [3]: binds
